Here are results for 34 molecules from patent US20250333467A1 (TECTONIC OPERATING, published 2025).

Positions count from the first letter of the chain named. Read-outs that look alike come from different tables or passages of the source.

Holding throughout (experiment): cell-based or functional assay
Assay [1] concerns the target T1, human RXFP1 (human, UniProt Q9HBX9 1-757).
T1 sequence (looked up): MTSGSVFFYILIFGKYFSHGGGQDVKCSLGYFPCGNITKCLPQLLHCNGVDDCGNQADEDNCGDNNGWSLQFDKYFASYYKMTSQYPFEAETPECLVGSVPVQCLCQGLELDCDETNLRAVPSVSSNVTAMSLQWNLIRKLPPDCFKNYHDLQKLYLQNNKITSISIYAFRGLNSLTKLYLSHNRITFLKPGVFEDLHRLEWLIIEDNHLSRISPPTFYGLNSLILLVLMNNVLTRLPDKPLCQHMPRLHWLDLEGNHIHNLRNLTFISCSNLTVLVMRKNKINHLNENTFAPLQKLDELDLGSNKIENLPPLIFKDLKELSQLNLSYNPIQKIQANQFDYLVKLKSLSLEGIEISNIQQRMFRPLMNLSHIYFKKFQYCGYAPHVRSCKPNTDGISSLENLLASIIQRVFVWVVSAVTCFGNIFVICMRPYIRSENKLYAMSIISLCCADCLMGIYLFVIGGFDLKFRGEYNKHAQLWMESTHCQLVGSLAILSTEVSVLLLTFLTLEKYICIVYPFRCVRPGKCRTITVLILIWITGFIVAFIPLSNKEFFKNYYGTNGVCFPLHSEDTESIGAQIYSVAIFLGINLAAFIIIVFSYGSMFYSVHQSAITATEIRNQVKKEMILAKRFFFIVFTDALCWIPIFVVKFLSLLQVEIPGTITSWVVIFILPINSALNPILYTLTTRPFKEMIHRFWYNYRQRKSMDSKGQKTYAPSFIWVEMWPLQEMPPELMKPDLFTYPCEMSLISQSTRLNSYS

The target of assay [2] is T1, human RXFP1. This is another data set of the same source.
Assay [3] concerns the target T1, human RXFP1. This is another data set of the same source.

B1: SEQ ID NO: 138 (Fc fusion)
chain: DKTHTCPPCPAPEAAGGPSVFLFPPKPKDTLMISRTPEVTCVVVDVSHEDPEVKFNWYVDGVEVHNAKTKPREEQYNSTYRVVSVLTVLHQDWLNGKEYKCKVSNKALAAPIEKTISKAKGQPREPQVYTLPPSRDELTKNQVSLTCLVKGFYPSDIAVEWESNGQPENNYKTTPPVLDSDGSFFLYSKLTVDKSRWQQGNVFSCSVLHEALHSHYTQKSLSLSPGKGGSDSYQEEVIKLCGRELVRAQIAICGKSTGGEGSGGEGSGGGRQLYSALANKCCKVGCTKQSLAQFC
On to B1, for which, in assay [1], the “Potency (cAMP, transient hRXFP1 in HEK293)” value (from here on “Potency”) turned out to be 7.5 nM.

B2: SEQ ID NO: 326 (Fc fusion)
chain: B1 chain with Y233W, S262E, S267E, G270S, K283H, Q289R
Take B2: the “Potency” value in assay [2] was 18.9 nM.

B3: SEQ ID NO: 367 (Fc fusion)
chain: DKTHTCPPCPAPEAAGGPSVFLFPPKPKDTLMISRTPEVTCVVVDVSHEDPEVKFNWYVDGVEVHNAKTKPREEQYNSTYRVVSVLTVLHQDWLNGKEYKCKVSNKALAAPIEKTISKAKGQPREPQVYTLPPSRDELTKNQVSLTCLVKGFYPSDIAVEWESNGQPENNYKTTPPVLDSDGSFFLYSKLTVDKSRWQQGNVFSCSVLHEALHSHYTQKSLSLSPGGGSDSWMEEVIKLCGRELVRAQIAICGKSTGGEGGGEEGGGEGGQLYSALANKCCHVGCTKRSLARFC
For the molecule B3, in assay [3], the “Transient HEK293 hRXFP1 cAMP EC50” value is around 150 nM. The “Potency” value in assay [2] is 140 nM.

B4: SEQ ID NO: 327 (Fc fusion)
chain: B3 chain with M233Q, G261E, E263G, G266E, E268G, G269S, G270R
Turning to B4, in assay [2], the “Potency” value is 9.3 nM.

B5: SEQ ID NO: 328 (Fc fusion)
chain: B3 chain with M233Q, G261E, E263G, G266E, E268G, G269S, G270R, R292Q
Regarding B5, the “Potency” value in assay [2] was found to be 41.9 nM.

B6: SEQ ID NO: 133 (Fc fusion)
chain: DKTHTCPPCPAPEAAGGPSVFLFPPKPKDTLMISRTPEVTCVVVDVSHEDPEVKFNWYVDGVEVHNAKTKPREEQYNSTYRVVSVLTVLHQDWLNGKEYKCKVSNKALAAPIEKTISKAKGQPREPQVYTLPPSRDELTKNQVSLTCLVKGFYPSDIAVEWESNGQPENNYKTTPPVLDSDGSFFLYSKLTVDKSRWQQGNVFSCSVLHEALHSHYTQKSLSLSPGKGGSDSYQEEVIKLCGRELVRAQIAICGKSTASDAAGAEAEAGARQLYSALANKCCYVGCTKQSLAQFC
On to B6, for which the “Potency” value in assay [1] worked out at 30.6 nM.

B7: SEQ ID NO: 102 (Fc fusion)
chain: B6 chain with K227E, Y233W, K255Q, E265Q, E267D, Y283H, Q289R
For B7, the “Potency” value in assay [2] stood at 7.5 nM.

B8: SEQ ID NO: 135 (Fc fusion)
chain: B1 chain with S267E, K283Y
For B8, the “Potency” value in assay [1] is 29.5 nM.

B9: SEQ ID NO: 121 (Fc fusion)
chain: B6 chain with Y233L, Y283H, Q289R
Regarding B9, the “Potency” value in assay [1] is 5.5 nM.

B10: SEQ ID NO: 113 (Fc fusion)
chain: B6 chain with K227E, Y233W, K255Q, E265N, E267D, Y283H
On to B10, for which the “Potency” value in assay [2] was determined as 26 nM.

B11: SEQ ID NO: 117 (Fc fusion)
chain: B6 chain with K227E, Y233W, K255Q, E265D, E267Q, Y283H
Turning to B11, the “Potency” value in assay [2] is 31.2 nM.

B12: SEQ ID NO: 101 (Fc fusion)
chain: B6 chain with K227E, Y233W, K255Q, Y283H, Q289R
Turning to B12, the “Potency” value in assay [2] was 29.4 nM.

B13: SEQ ID NO: 100 (Fc fusion)
chain: B6 chain with K227E, Y233W, K255Q, E265D, E267D, Y283H, Q289R
As to B13, the “Potency” value in assay [2] stood at 28.7 nM.

B14: SEQ ID NO: 112 (Fc fusion)
chain: B6 chain with K227E, Y233W, K255Q, E265D, E267N, Y283H
For B14, in assay [2], the “Potency” value was found to be 24.8 nM.

B15: SEQ ID NO: 108 (Fc fusion)
chain: B6 chain with K227E, Y233W, Y283H
Take B15: the “Potency” value in assay [2] was 35.2 nM.

B16: SEQ ID NO: 120 (Fc fusion)
chain: B6 chain with Y233F, Y283H, Q289R
As to B16, the “Potency” value in assay [1] stood at 4.8 nM.

B17: SEQ ID NO: 88 (Fc fusion)
chain: B6 chain with Y233W, E265Q, E267D, Y283H, Q289R
Regarding B17, the “Potency” value in assay [2] stood at 1.4 nM.

B18: SEQ ID NO: 89 (Fc fusion)
chain: B6 chain with Y233W, E265D, E267Q, Y283H, Q289R
Take B18: the “Potency” value in assay [2] was found to be 2.5 nM.

B19: SEQ ID NO: 134 (Fc fusion)
chain: B6 chain with Y283K
On to B19, for which the “Potency” value in assay [1] stood at 21.6 nM.

B20: SEQ ID NO: 119 (Fc fusion)
chain: B6 chain with Y283H, Q289R
On to B20, for which the “Potency” value in assay [1] is 4.9 nM.

B21: SEQ ID NO: 137 (Fc fusion)
chain: B1 chain with K283Y
B21: the “Potency” value in assay [1] was found to be 11.4 nM.

B22: SEQ ID NO: 136 (Fc fusion)
chain: B1 chain with S267E
As to B22, the “Potency” value in assay [1] was found to be 17.6 nM.

B23: SEQ ID NO: 85 (Fc fusion)
chain: B6 chain with Y233W, E265N, E267D, Y283H, Q289R
Consider B23, for which the “Potency” value in assay [2] is 2 nM.

B24: SEQ ID NO: 92 (Fc fusion)
chain: B6 chain with K227E, Y233W, E265N, E267D, Y283H, Q289R
As to B24, in assay [2], the “Potency” value turned out to be 4.3 nM.

B25: SEQ ID NO: 94 (Fc fusion)
chain: B6 chain with K227E, Y233W, Y283H, Q289R
Turning to B25, the “Potency” value in assay [2] was determined as 12.2 nM.

B26: SEQ ID NO: 90 (Fc fusion)
chain: B6 chain with Y233W, E265Q, E267Q, Y283H, Q289R
As for B26, in assay [3], the “THP1 (endogenous RXFP1) cAMP EC50” value worked out at 4.4 nM and the “Transient HEK293 hRXFP1 cAMP EC50” value was determined as 0.6 nM. In addition, the “Potency” value in assay [2] was 0.6 nM.

B27: SEQ ID NO: 96 (Fc fusion)
chain: B6 chain with K227E, Y233W, E265D, E267Q, Y283H, Q289R
On to B27, for which, in assay [2], the “Potency” value is 9.9 nM.

B28: SEQ ID NO: 97 (Fc fusion)
chain: B6 chain with K227E, Y233W, E265Q, E267Q, Y283H, Q289R
In the case of B28, the “Potency” value in assay [2] was 1.3 nM.

B29: SEQ ID NO: 99 (Fc fusion)
chain: B6 chain with K227E, Y233W, K255Q, E265N, E267D, Y283H, Q289R
As for B29, the “Potency” value in assay [2] was determined as 9.4 nM.

B30: SEQ ID NO: 116 (Fc fusion)
chain: B6 chain with K227E, Y233W, K255Q, E265Q, E267D, Y283H
For B30, the “Potency” value in assay [2] was 25.9 nM.

B31: SEQ ID NO: 103 (Fc fusion)
chain: B6 chain with K227E, Y233W, K255Q, E265D, E267Q, Y283H, Q289R
On to B31, for which the “Potency” value in assay [2] came out at 12.2 nM.

B32: SEQ ID NO: 84 (Fc fusion)
chain: B6 chain with Y233W, E265D, E267N, Y283H, Q289R
B32: the “Potency” value in assay [2] came out at 1.9 nM.

B33: SEQ ID NO: 106 (Fc fusion)
chain: B6 chain with K227E, Y233W, E265N, E267D, Y283H
With B33, the “Potency” value in assay [2] was determined as 14 nM.

B34: SEQ ID NO: 110 (Fc fusion)
chain: B6 chain with K227E, Y233W, E265D, E267Q, Y283H
Regarding B34, in assay [2], the “Potency” value is 17.2 nM.
